Experimental data as given in article PMC9352680, “A comprehensive thermodynamic model for RNA binding by the Saccharomyces cerevisiae Pumilio protein PUF4”.

T1: PUF4 RNA-binding domain (Saccharomyces cerevisiae, UniProt P25339 537-888)
T1 sequence: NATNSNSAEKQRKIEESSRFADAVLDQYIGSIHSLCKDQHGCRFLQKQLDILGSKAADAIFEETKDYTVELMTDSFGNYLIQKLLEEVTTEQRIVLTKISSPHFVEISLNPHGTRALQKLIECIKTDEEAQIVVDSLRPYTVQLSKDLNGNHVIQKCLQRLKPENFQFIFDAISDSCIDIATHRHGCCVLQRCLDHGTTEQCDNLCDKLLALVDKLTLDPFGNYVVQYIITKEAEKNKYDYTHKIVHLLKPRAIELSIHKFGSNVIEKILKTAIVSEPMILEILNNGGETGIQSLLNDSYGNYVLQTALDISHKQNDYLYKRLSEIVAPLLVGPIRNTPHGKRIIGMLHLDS


Molecular target: T1, PUF4 RNA-binding domain
Experiment: Mg; RNA-MaP; 20 mM Na-HEPES pH 7.4, 30 mM KOAc, 0.75 mM MgCl2, 0.1% Tween-20, 5% glycerol, 0.1 mg/mL BSA, 2 mM DTT; 25 C; 0.0125-409.6 nM protein
Conditions: tags: N-His6-TEV cleaved; C-SNAP kept, Cy3B-labelled; label: tethered on chip by stalled RNA polymerase

Binder	Kd
UCUCUUUAUAUAUAUUACGUCUCUU (ssRNA) [Id_ii_S1_P4E.3_K4.2_C4.2_[C-2T]_[T-1A]_H4.2_A4.1_F4.1_T4.2_[G10C]_[T11G]]	21.9 nM
UCUCUUUAUAUAUAUUAUCUCUCUU (ssRNA) [Id_ii_S1_P4E.3_K4.2_C4.2_[C-2T]_[T-1A]_H4.2_A4.1_F4.1_T4.2_[G10T]_[T11C]]	24.5 nM
UCUCUUUGUUUCUUAUCUCUU (ssRNA) [Ib_S1_P4E.1_K4.1_C4.1_H4.1_[A4T]_A4.1_[A6C]_F4.1_T4.1]	370 nM
UCUCUUUGUCUGUUAUCUCUU (ssRNA) [Ib_S1_P4E.1_K4.1_C4.1_H4.1_[A4C]_A4.1_[A6G]_F4.1_T4.1]	626 nM
UCUCUUAAUAUAUAUUAUCUCUCUU (ssRNA) [Id_ii_S1_P4E.3_K4.2_C4.2_[C-2A]_[T-1A]_H4.2_A4.1_F4.1_T4.2_[G10T]_[T11C]]	79.9 nM
UCUCUUAUUAUAUAUUAAAUCUCUU (ssRNA) [Id_ii_S1_P4E.3_K4.2_C4.2_[C-2A]_H4.2_A4.1_F4.1_T4.2_[G10A]_[T11A]]	72.4 nM
UCUCUUACUAUAUAUUACGUCUCUU (ssRNA) [Id_ii_S1_P4E.3_K4.2_C4.2_[C-2A]_[T-1C]_H4.2_A4.1_F4.1_T4.2_[G10C]_[T11G]]	51.9 nM
UCUCUUAUUAUAUAUUAAUUCUCUU (ssRNA) [Id_ii_S1_P4E.3_K4.2_C4.2_[C-2A]_H4.2_A4.1_F4.1_T4.2_[G10A]]	25.6 nM
UCUCUUUUUAUAUAUUACUUCUCUU (ssRNA) [Id_ii_S1_P4E.3_K4.2_C4.2_[C-2T]_H4.2_A4.1_F4.1_T4.2_[G10C]]	21 nM
UCUCUUUUUAUAUAUUAGUUCUCUU (ssRNA) [Id_ii_S1_P4E.3_K4.2_C4.2_[C-2T]_H4.2_A4.1_F4.1_T4.2]	8.51 nM
UCUCUUUGUCUUUUAUCUCUU (ssRNA) [Ib_S1_P4E.1_K4.1_C4.1_H4.1_[A4C]_A4.1_[A6T]_F4.1_T4.1]	333 nM
UCUCUUACUAUAUAUUAUGUCUCUU (ssRNA) [Id_ii_S1_P4E.3_K4.2_C4.2_[C-2A]_[T-1C]_H4.2_A4.1_F4.1_T4.2_[G10T]_[T11G]]	22.5 nM
UCUCUUAAUAUAUAUUACGUCUCUU (ssRNA) [Id_ii_S1_P4E.3_K4.2_C4.2_[C-2A]_[T-1A]_H4.2_A4.1_F4.1_T4.2_[G10C]_[T11G]]	163 nM
UCUCUUAUUAUAUAUUACAUCUCUU (ssRNA) [Id_ii_S1_P4E.3_K4.2_C4.2_[C-2A]_H4.2_A4.1_F4.1_T4.2_[G10C]_[T11A]]	42.9 nM
UCUCUUACUAUAUAUUACCUCUCUU (ssRNA) [Id_ii_S1_P4E.3_K4.2_C4.2_[C-2A]_[T-1C]_H4.2_A4.1_F4.1_T4.2_[G10C]_[T11C]]	38.3 nM
UCUCUUAAUAUAUAUUAGCUCUCUU (ssRNA) [Id_ii_S1_P4E.3_K4.2_C4.2_[C-2A]_[T-1A]_H4.2_A4.1_F4.1_T4.2_[T11C]]	38.8 nM
UCUCUUUAUAUAUAUUAAAUCUCUU (ssRNA) [Id_ii_S1_P4E.3_K4.2_C4.2_[C-2T]_[T-1A]_H4.2_A4.1_F4.1_T4.2_[G10A]_[T11A]]	38.1 nM
UCUCUUUGUGUUUUAUCUCUU (ssRNA) [Ib_S1_P4E.1_K4.1_C4.1_H4.1_[A4G]_A4.1_[A6T]_F4.1_T4.1]	13.1 nM
UCUCUUUUUAUAUAUUAAAUCUCUU (ssRNA) [Id_ii_S1_P4E.3_K4.2_C4.2_[C-2T]_H4.2_A4.1_F4.1_T4.2_[G10A]_[T11A]]	55.1 nM

Binder	Kd
UCUCUUACUAUAUAUUAAUUCUCUU (ssRNA) [Id_ii_S1_P4E.3_K4.2_C4.2_[C-2A]_[T-1C]_H4.2_A4.1_F4.1_T4.2_[G10A]]	37.5 nM
UCUCUUUAUAUAUAUUAGCUCUCUU (ssRNA) [Id_ii_S1_P4E.3_K4.2_C4.2_[C-2T]_[T-1A]_H4.2_A4.1_F4.1_T4.2_[T11C]]	12.7 nM
UCUCUUAUUAUAUAUUAUGUCUCUU (ssRNA) [Id_ii_S1_P4E.3_K4.2_C4.2_[C-2A]_H4.2_A4.1_F4.1_T4.2_[G10T]_[T11G]]	18.8 nM
UCUCUUUUUAUAUAUUAUGUCUCUU (ssRNA) [Id_ii_S1_P4E.3_K4.2_C4.2_[C-2T]_H4.2_A4.1_F4.1_T4.2_[G10T]_[T11G]]	17.9 nM
UCUCUUACUAUAUAUUACUUCUCUU (ssRNA) [Id_ii_S1_P4E.3_K4.2_C4.2_[C-2A]_[T-1C]_H4.2_A4.1_F4.1_T4.2_[G10C]]	26.2 nM
UCUCUUUAUAUAUAUUACAUCUCUU (ssRNA) [Id_ii_S1_P4E.3_K4.2_C4.2_[C-2T]_[T-1A]_H4.2_A4.1_F4.1_T4.2_[G10C]_[T11A]]	28.9 nM
UCUCUUAAUAUAUAUUAGUUCUCUU (ssRNA) [Id_ii_S1_P4E.3_K4.2_C4.2_[C-2A]_[T-1A]_H4.2_A4.1_F4.1_T4.2]	26.7 nM
UCUCUUUUUAUAUAUUAAGUCUCUU (ssRNA) [Id_ii_S1_P4E.3_K4.2_C4.2_[C-2T]_H4.2_A4.1_F4.1_T4.2_[G10A]_[T11G]]	485 nM
UCUCUUACUAUAUAUUAACUCUCUU (ssRNA) [Id_ii_S1_P4E.3_K4.2_C4.2_[C-2A]_[T-1C]_H4.2_A4.1_F4.1_T4.2_[G10A]_[T11C]]	33 nM
UCUCUUUGUCUCUUAUCUCUU (ssRNA) [Ib_S1_P4E.1_K4.1_C4.1_H4.1_[A4C]_A4.1_[A6C]_F4.1_T4.1]	813 nM
UCUCUUUAUAUAUAUUAGUUCUCUU (ssRNA) [Id_ii_S1_P4E.3_K4.2_C4.2_[C-2T]_[T-1A]_H4.2_A4.1_F4.1_T4.2]	9.8 nM
UCUCUUAUUAUAUAUUAUUUCUCUU (ssRNA) [Id_ii_S1_P4E.3_K4.2_C4.2_[C-2A]_H4.2_A4.1_F4.1_T4.2_[G10T]]	9.53 nM
UCUCUUUUUAUAUAUUAUCUCUCUU (ssRNA) [Id_ii_S1_P4E.3_K4.2_C4.2_[C-2T]_H4.2_A4.1_F4.1_T4.2_[G10T]_[T11C]]	19.8 nM
UCUCUUACUAUAUAUUAUAUCUCUU (ssRNA) [Id_ii_S1_P4E.3_K4.2_C4.2_[C-2A]_[T-1C]_H4.2_A4.1_F4.1_T4.2_[G10T]_[T11A]]	27.2 nM
UCUCUUAUUAUAUAUUACUUCUCUU (ssRNA) [Id_ii_S1_P4E.3_K4.2_C4.2_[C-2A]_H4.2_A4.1_F4.1_T4.2_[G10C]]	20.1 nM
UCUCUUUUUAUAUAUUAUAUCUCUU (ssRNA) [Id_ii_S1_P4E.3_K4.2_C4.2_[C-2T]_H4.2_A4.1_F4.1_T4.2_[G10T]_[T11A]]	22.2 nM
UCUCUUUAUAUAUAUUACCUCUCUU (ssRNA) [Id_ii_S1_P4E.3_K4.2_C4.2_[C-2T]_[T-1A]_H4.2_A4.1_F4.1_T4.2_[G10C]_[T11C]]	29.6 nM
UCUCUUUUUAUAUAUUAGGUCUCUU (ssRNA) [Id_ii_S1_P4E.3_K4.2_C4.2_[C-2T]_H4.2_A4.1_F4.1_T4.2_[T11G]]	22.6 nM
UCUCUUUUUAUAUAUUACGUCUCUU (ssRNA) [Id_ii_S1_P4E.3_K4.2_C4.2_[C-2T]_H4.2_A4.1_F4.1_T4.2_[G10C]_[T11G]]	30.1 nM

Binder	Kd
UCUCUUAUUAUAUAUUAACUCUCUU (ssRNA) [Id_ii_S1_P4E.3_K4.2_C4.2_[C-2A]_H4.2_A4.1_F4.1_T4.2_[G10A]_[T11C]]	44.1 nM
UCUCUUAUUAUAUAUUAUAUCUCUU (ssRNA) [Id_ii_S1_P4E.3_K4.2_C4.2_[C-2A]_H4.2_A4.1_F4.1_T4.2_[G10T]_[T11A]]	26.5 nM
UCUCUUAAUAUAUAUUACUUCUCUU (ssRNA) [Id_ii_S1_P4E.3_K4.2_C4.2_[C-2A]_[T-1A]_H4.2_A4.1_F4.1_T4.2_[G10C]]	56.4 nM
UCUCUUAAUAUAUAUUAACUCUCUU (ssRNA) [Id_ii_S1_P4E.3_K4.2_C4.2_[C-2A]_[T-1A]_H4.2_A4.1_F4.1_T4.2_[G10A]_[T11C]]	442 nM
UCUCUUAUUAUAUAUUACCUCUCUU (ssRNA) [Id_ii_S1_P4E.3_K4.2_C4.2_[C-2A]_H4.2_A4.1_F4.1_T4.2_[G10C]_[T11C]]	39 nM
UCUCUUACUAUAUAUUAUCUCUCUU (ssRNA) [Id_ii_S1_P4E.3_K4.2_C4.2_[C-2A]_[T-1C]_H4.2_A4.1_F4.1_T4.2_[G10T]_[T11C]]	29.3 nM
UCUCUUAUUAUAUAUUAUCUCUCUU (ssRNA) [Id_ii_S1_P4E.3_K4.2_C4.2_[C-2A]_H4.2_A4.1_F4.1_T4.2_[G10T]_[T11C]]	18.9 nM
UCUCUUAGUAUAUAUUAUCUCUCUU (ssRNA) [Id_ii_S1_P4E.3_K4.2_C4.2_[C-2A]_[T-1G]_H4.2_A4.1_F4.1_T4.2_[G10T]_[T11C]]	43 nM
UCUCUUAAUAUAUAUUAUUUCUCUU (ssRNA) [Id_ii_S1_P4E.3_K4.2_C4.2_[C-2A]_[T-1A]_H4.2_A4.1_F4.1_T4.2_[G10T]]	54.1 nM
UCUCUUUAUAUAUAUUACUUCUCUU (ssRNA) [Id_ii_S1_P4E.3_K4.2_C4.2_[C-2T]_[T-1A]_H4.2_A4.1_F4.1_T4.2_[G10C]]	20.6 nM
UCUCUUUUUAUAUAUUAGCUCUCUU (ssRNA) [Id_ii_S1_P4E.3_K4.2_C4.2_[C-2T]_H4.2_A4.1_F4.1_T4.2_[T11C]]	10.3 nM
UCUCUUAAUAUAUAUUACAUCUCUU (ssRNA) [Id_ii_S1_P4E.3_K4.2_C4.2_[C-2A]_[T-1A]_H4.2_A4.1_F4.1_T4.2_[G10C]_[T11A]]	48.9 nM
UCUCUUAAUAUAUAUUACCUCUCUU (ssRNA) [Id_ii_S1_P4E.3_K4.2_C4.2_[C-2A]_[T-1A]_H4.2_A4.1_F4.1_T4.2_[G10C]_[T11C]]	76.2 nM
UCUCUUUAUAUAUAUUAACUCUCUU (ssRNA) [Id_ii_S1_P4E.3_K4.2_C4.2_[C-2T]_[T-1A]_H4.2_A4.1_F4.1_T4.2_[G10A]_[T11C]]	15.7 nM
UCUCUUACUAUAUAUUAUUUCUCUU (ssRNA) [Id_ii_S1_P4E.3_K4.2_C4.2_[C-2A]_[T-1C]_H4.2_A4.1_F4.1_T4.2_[G10T]]	25.9 nM
UCUCUUUUUAUAUAUUAAUUCUCUU (ssRNA) [Id_ii_S1_P4E.3_K4.2_C4.2_[C-2T]_H4.2_A4.1_F4.1_T4.2_[G10A]]	28.9 nM
UCUCUUACUAUAUAUUAAAUCUCUU (ssRNA) [Id_ii_S1_P4E.3_K4.2_C4.2_[C-2A]_[T-1C]_H4.2_A4.1_F4.1_T4.2_[G10A]_[T11A]]	87.3 nM
UCUCUUUUUAUAUAUUAACUCUCUU (ssRNA) [Id_ii_S1_P4E.3_K4.2_C4.2_[C-2T]_H4.2_A4.1_F4.1_T4.2_[G10A]_[T11C]]	31.8 nM
UCUCUUUUUAUAUAUUACCUCUCUU (ssRNA) [Id_ii_S1_P4E.3_K4.2_C4.2_[C-2T]_H4.2_A4.1_F4.1_T4.2_[G10C]_[T11C]]	26.2 nM
